The term Kd denotes the concentration at which binding is half-saturated. A lower Kd goes with a tighter complex. One may read the IC50 as the concentration that inhibits the measured activity by half. Read a high IC50 as lower potency. Broadly, the koff is a measure of how fast the partners let go of each other. Usually kon stands for the rate constant with which the complex forms.

B1: Peptide U12 (canstatin-derived 15-mer) (peptide)
peptide: VSIGYLLVKHSQTDQ
B2: Peptide S16 (canstatin-derived 15-mer) (peptide)
peptide: PAIAIAVHSQDVSIP
B3: CMG2-biotin (human CMG2 vWA domain 40-217, [change], [change], biotin-labelled) (domain or fragment)
chain: CRAFDLYFVLDKSGSVANNWIEIYNFVQQLAERFVSPEMRLSFIVFSSQATIILPLTGDRGKISKGLEDLKRVSPVGETYIHEGLKLANEQIQKAGGLKTSSIIIALTDGKLDGLVPSYAEKEAKISRSLGASVYAVGVLDFEQAQLERIADSKEQVFPVKGGFQALKGIINSILAQS

The target in experiment [1] is T1, CMG2-GST-biotin (human CMG2 vWA domain 40-217, [change], [change], GST fusion, biotin-labelled) (human, UniProt P58335 40-217).
T1 chain: B3 chain
In words: BLI. On the technique in general: BLI is a label-free optical method that tracks binding on a fibre tip over time.

Experiment [2] concerns the target T2, CMG2-488 (human CMG2 vWA domain 40-217, [change], [change], AlexaFluor 488) (human, UniProt P58335 40-217).
T2 chain: B3 chain
In words: FRET or BRET. Background: BRET reads energy transfer from a luciferase to a nearby fluorophore.

The target of experiment [3] is B2. In words: peptide or protein array.
The target in experiment [4] is B1. In words: peptide or protein array.

In experiment [1], B1 yielded a Kd of 80000 nM. In experiment [2], this molecule yielded an IC50 of 35000 nM.
In experiment [1], B2 yielded a Kd of 400 nM, a dissociation rate constant (koff) of approximately 0.0001 s⁻¹ and an association rate constant (kon) of approximately 200 M⁻¹ s⁻¹. In experiment [2], this molecule returned an IC50 of 2700 nM and a Kd of 100 ± 55 nM.
In the case of B3, the binding result in experiment [3] and in experiment [4] was “binds” throughout.

(Values after publication doi:10.1101/705459 (bioRxiv, 2019).)
